Experiment: yeast display, Sf9 membrane polyspecificity reagent, FACS + sequencing; frameworks hold sequencing errors
Method in brief: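 After 36–48 hours of galactose induction, yeast (Saccharomyces cerevisiae BJ5465) displaying a synthetic nanobody library were stained at 4 °C for 1 hour with 10% biotinylated, detergent-solubilized Sf9 membrane reagent. Streptavidin microbeads enriched the stained cells before FACS sorting into low and high (top ~1%) gates on anti-HA and streptavidin fluorescence. Each clone's polyreactivity label reflects its gate of origin.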

Row | Sequence | polyreactivity (PSR sort gate)
1 | QVQLVESGGGLVQAGGSLRLSCAASGFTFTYYAMGWYRQAPGKERELVAVITRSGNTYYADSVKGRFTISRDNAKNTVYLQMNSLKPEDTAVYYCATVGQRLHLGYWGQGTQVTVSS | high polyreactivity
2 | QVQLVESGGGLVQAGGSLRLSCAASGFTFVGNAMGWYRQAPGLERELVAAITRGGSSYYADSVKGRFTISRDNAKKTVYLQMNSLKPEDTAVYYCNAELPVHWSWYDYWGQGTQVTVSS | low polyreactivity
3 | QVQLVESGGGLVQAGGSLRLSCAASGFTFVGYAMGWYRQAPGKERELVAAISSSGVSTYYADSVKGRFTISRDNAKNTVYLQMNSLKPEDTAVYYCNRVSVYRSSHLLWGGYWGQGTQVTVSS | low polyreactivity
4 | QVQLVESGGGLVQAGGSLRLSCAASGFTFVINDMGWYRQAPGKERELVADITSGGDKYYADSVKGRFTISRDNAKNTVYLQMISLKPEDTAVYYCARDNERDYYTYPYDYWGQGTQVTVSS | low polyreactivity
5 | QVQLVESGGGLVQAGGSLRLSCAASGFTFVIYAMGWYRQAPGTERELVATITGSGGSTYYADSVKWRITISRDNAKNTVYLQMNSLKPEDTAVYYCAARRRYQRYSRYDYWGLGTQVTVSS | high polyreactivity
6 | QVQLVESGGGLVQAGGSLRLSCAASGFTFVKYAMGWYRQAPGKERELVAVISRRGGSTYYADSVKGRFTISRDNAKNTVYLQMNSLKPEDTAVYYCAAKVALPRTQEWEYGYWGQGTQVTVSS | high polyreactivity
7 | QVQLVESGGGLVQAGGSLRLSCAASGFTFVKYAMGWYRQAPGKVRELVASISSGGSTYYADSVKGRFTISRDNAKNTVYLQMNSLKPEDTAVYYCNKSPGYGRYSRRYDSWGQGTQVTVSS | high polyreactivity
8 | QVQLVESGGGLVQAGGSLRLSCAASGFTFVPYAMGWYRQAPGKEREFVADITSSGTTNYADSVKGRFTISRDNAKNTVYLQMNSLKPEDTAVYYCAADPDSGQVPFDYWGQGTQVTVSS | low polyreactivity
9 | QVQLVESGGGLVQAGGSLRLSCAASGFTFVQYAMGWYRPAPGKERELVARISSSGGSTYYADSVKGRFTISRDNAKNTVYLQMTSLKPEDTAVYYCAARRSHYYYVARFDYWGQGTQVTVSS | high polyreactivity
10 | QVQLVESGGGLVQAGGSLRLSCAASGFTFVQYAMGWYRPAPGKERELVATISKSGGITYYADSVKGRFTISRDTAKNTVYLHMNSVKPEDTAVYYCAAAWYYSSRGFHATWGHDYWGQGTQVTVSS | low polyreactivity
11 | QVQLVESGGGLVQAGGSLRLSCAASGFTFVRNAMGWYRQAPGKERELVAAISDRGGTYYADSVKGRFTISRDNAKNTVYLQMNSLKPEDTAVYYCAAKYWYPYQYSHGSFYYWGQVTQVTVSS | high polyreactivity
12 | QVQLVESGGGLVQAGGSLRLSCAASGFTFVRYAMGWDSQAPGTERELVAAMSRSGGSTYYADSVKGRFTISRDNAKNTVYLQMNSLKPEDTAVYYCAADIKGRTGDAYDYWGQGTQVTVSS | low polyreactivity
13 | QVQLVESGGGLVQAGGSLRLSCAASGFTFVRYAMGWYRQAPGKERELVAAITRSGGSTYYADSVKGRFTISRDNAKNTVYLQMNSLKPEDTAVYYCNARRSRSRYDYWGQGTQVTVSS | high polyreactivity
14 | QVQLVESGGGLVQAGGSLRLSCAASGFTFVRYAMRWYRQAPGTERELVAAISYSGGRTYYADSVKGRFTISRDTAKNTVYLQMNSLKPEDTAVYYCAADAFRGFYWGQGTQVTVSS | high polyreactivity
15 | QVQLVESGGGLVQAGGSLRLSCAASGFTFVSNAMGWYRQAPGKERELVADITSDGSTNYADSVKGRFTISRDNAKNTVYLQMNSLKPEDTAVYYCATDQRSHTWVNQFDYWGQGTQVTVSS | low polyreactivity
16 | QVQLVESGGGLVQAGGSLRLSCAASGFTFVSYAMGWYRQAPGKERELVAAISSRVGSTYYADSVKGRFTISRDNAKNTVYLQMNSLKPEDTAVYYCAASFTDRVTLDYFRSYAFEYWGQGTQVTVSS | low polyreactivity
17 | QVQLVESGGGLVQAGGSLRLSCAASGFTFVSYAMGWYRQATGKERELVAVIDNSDGDTYYADSVKGRFTISRDNAKNTVYLQMNSLKPEDTAVYYCAADAVIEWTDWYSAWWYYYWGQGTQVTVSS | low polyreactivity
18 | QVQLVESGGGLVQAGGSLRLSCAASGFTFVTYAMGWYRQAPGKERELVAAISSSGRTYYADSVKGRFTISRDNAKNTVYLQMNSLKPEDTAVYYCAVQGAWRSFYYWGQGTQVTVSS | high polyreactivity
19 | QVQLVESGGGLVQAGGSLRLSCAASGFTFVWYAMGWYRPAPGKERELVAAISRRGTRTYYADSVKGRFTISRDNAKNTVYLQMNSLKPEDTAVYYCAASNGYQAVTYDYWGQGTQVTVSS | high polyreactivity
20 | QVQLVESGGGLVQAGGSLRLSCAASGFTFVWYVMGWYRQAPGKEREFVAAITSTGGNTNYADSVKGRFTISRDNAKNTVYLEMNSLKPEDTAVYYCAKRYGFPPGYYYWGQGTQVTVSS | low polyreactivity

Row | Sequence | polyreactivity (PSR sort gate)
21 | QVQLVESGGGLVQAGGSLRLSCAASGFTFVYNALGWYRQAPGKERELVAAISGSGGSTYYADSVKGRFTISRDNAKNTVYLQMNSLKPEDTSVYYCNAVPSWRWEYDHWGQGTQVTVSS | high polyreactivity
22 | QVQLVESGGGLVQAGGSLRLSCAASGFTFVYNAMGWYRQAPGKERELVAAINSGGRTNYADSVKGRFTISRDNAKNTVYLQMNSLKPEDTAVYYCAAEVTSFSFGGDATEYYWGQGTQVTVSS | low polyreactivity
23 | QVQLVESGGGLVQAGGSLRLSCAASGFTFVYNAMGWYRQAPGKERELVAAISKSGDRTYYADSVKGRFTISRDYAKNTVYLQMNSLKPEDTAVYYCNAKVVHGYQRFNYWGQGTEVTVSS | high polyreactivity
24 | QVQLVESGGGLVQAGGSLRLSCAASGFTFVYYAMGWYRPAPGKERELVAAISRGGSTYYADSVKGRFTISRDNAKNTVYLQMNSLKPEDTAVYYCNAKKSGLYVSYPAYDYWGQGTQVTVSS | low polyreactivity
25 | QVQLVESGGGLVQAGGSLRLSCAASGFTFVYYAMGWYRQAPGKERELVAGISSSAGSTYYADSVKGRFTISRDNAKNTVYLQMNSLKPEDTAVYYCNAEYYWWPFDYWGQGTQVTVSS | high polyreactivity
26 | QVQLVESGGGLVQAGGSLRLSCAASGFTFVYYAMGWYRQAPGKEREMVAGISSSDTTSYADSVKGRFTISRDNAKNTVYLQMNSLKPEDTEVYYCATRYWRRYPSTWSYPYYYWGQGTQVTVSS | high polyreactivity
27 | QVQLVESGGGLVQAGGSLRLSCAASGFTFVYYAMGWYRQAPGTERELVAAISQSGSSTYYADSVKGRFTISRDNAKNTVYLQMNTLKPEDTAVYYCAAQEFQKRLGGSWWRYDYWGQGTQVTVSS | high polyreactivity
28 | QVQLVESGGGLVQAGGSLRLSCAASGFTFVYYVMGWYRQAPGKERELVAAINAGGGSTYYADSVKGRFTISRDNAKNTVYLQMNSLKPEDTAVYYCYARVRVRLGRNWSSYYYWGQGTQVNVSS | high polyreactivity
29 | QVQLVESGGGLVQAGGSLRLSCAASGFTFWEYAMGWYRQAPGKERELVAAISRGTSTYYADSVKGRFTISRDNAKNTVYLQMNSLKPEDTAVYYCAAAPSYYPARHGYWGQGTQVTVSS | low polyreactivity
30 | QVQLVESGGGLVQAGGSLRLSCAASGFTFWLYAMGWYRQAPGKERELVAAISRNSVSTYYADSVKGRFTISRDNAKNTVYLQMNSLKPEDTAVYYCAVDQYATDDYWGQGTQVTVSS | high polyreactivity
31 | QVQLVESGGGLVQAGGSLRLSCAASGFTFWRNAMGWYRQAPGKERELVAAISSGTGRTYYADSVKGRFTISRDNAKNTVYLQMNSLKPEDTAVYYCAKVNGRTSYGTSTRDYWGQGTQVTVSS | low polyreactivity
32 | QVQLVESGGGLVQAGGSLRLSCAASGFTFWRNTMGWYRQAPGKEREFVAGISGSGGSTYYADSVKGRFTISRDNAKNTVYLQMNSLKPEDTAVYYCAAVYRFSRTFYTPGYDYWGQGTQVTVSS | high polyreactivity
33 | QVQLVESGGGLVQAGGSLRLSCAASGFTFWRYAMGWYRQAPGKERELVAVITRRGGSTYYADSVKGRFTISRDNAKNTVYLQMNSLKPEDTAVYYCAAGPVSQQHSPGPHDYWGQGTQVTVSS | high polyreactivity
34 | QVQLVESGGGLVQAGGSLRLSCAASGFTFWSYAMGWYRQAPGKERELVAGITIDGNTYYADSVKGRFTISRDNAKNTVYLQMNSLKPEDTAVYYCATPVYRSTYEYDYWGQGTQVTVSS | low polyreactivity
35 | QVQLVESGGGLVQAGGSLRLSCAASGFTFWSYGMGWYRQAPGKERELVAAISWSGGRTYYADSVKGRFTISRDNAKNTVYLQMNSLKPDDTAVYYCAAQPYYYFDEYTQYDYWGQGTQVTVSS | high polyreactivity
36 | QVQLVESGGGLVQAGGSLRLSCAASGFTFWTYAMGWYRQAPGKERELVAAISRSAGRTYYADSVKGRFTISRDNAKNTVYLQMNSLKPEDTAVYYCNARAGYVRYGYWGQGTQVTVSS | high polyreactivity
37 | QVQLVESGGGLVQAGGSLRLSCAASGFTFWWYAMGWYRQAPGKERELVASIDTRGGTYYADSVKGRFTISRDNAKNTVYLQMNSLKPEDSAVYYCNADGAYGNYRGGYWGQGTEVTVSS | high polyreactivity
38 | QVQLVESGGGLVQAGGSLRLSCAASGFTFWWYAMGWYRQAPGKERQLVAGITSGASTYYADSVKGRYTISRDNAKNTVYLQMNSLKPEDTAVYYCAADWLGWYQPYDYWGQGTQVTVSS | low polyreactivity
39 | QVQLVESGGGLVQAGGSLRLSCAASGFTFWYYAMGWYRQAPGKERELVAAISSNGASTYYADSVKGRFTISRDNAKNTVYLQMNSLKPEDTAVYYCNAYYDTWDSAYDYDYWGQGTQVTVSS | low polyreactivity
40 | QVQLVESGGGLVQAGGSLRLSCAASGFTFWYYAMGWYRQAPGKERELVAAITEDGDSTYYADSVKGRFTISRDNAKNTVYLQMNSLKPEDTAVYYCNTDLTFNGTSGDYDYWGQGSQVTVSS | low polyreactivity
